{"source": "the nanobody polyreactivity screen of Harvey et al. (2022)", "data": [{"assay": "yeast display, Sf9 membrane polyspecificity reagent, FACS + sequencing; frameworks hold sequencing errors", "how_it_was_run": "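Nanobodies came from a synthetic yeast display library in Saccharomyces cerevisiae BJ5465, induced with galactose for 36–48 hours and stained for 1 hour at 4 °C with 10% biotinylated, detergent-solubilized Sf9 membrane reagent. Cells were enriched on streptavidin microbeads and then FACS-sorted, with low and high (top ~1%) gates set on anti-HA fluorescence for expression and streptavidin fluorescence for reagent binding. Each polyreactivity label reflects the gate a clone came from. Genes were amplified by colony PCR, sequenced by MiSeq 2 × 250 and filtered by CDR length.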", "values": [{"sequence": "QVQLEESGGGLVQAGGSLRLSCAASGSIFVTNAMGWYRQAPVKERELVAAISSGGNTNYADSVKGRFTISRDNAKNTVYLQMNSLKPEDTAVYYCAKDPDKVDYVDMDYWGQGTQVTVSS", "polyreactivity (PSR sort gate)": "low polyreactivity"}, {"sequence": "QVQLEESGGGLVQAGGSLRLSCAASGSIFWIYALGWYRQAPGKERELVATITRRGGSTYYADSVKGRFTISRDNAKNTVYLQMNSLKPEDTAVYYCATEPGYTYLTSYKYDYWGQGTQVTVSS", "polyreactivity (PSR sort gate)": "low polyreactivity"}, {"sequence": "QVQLEESGGGLVQAGGSLRLSCAASGSIFYSNAMGWYRQAPGKEREFVAAISAGGGSTYYADSVKGRFTISRDNEKNTVYLQMNSLKPEDTSVYYCAAQPYNIIYPYDYWGQGTQVTVSS", "polyreactivity (PSR sort gate)": "low polyreactivity"}, {"sequence": "QVQLEESGGGLVQAGGSLRLSCAASGSIFYSYAMGWYRQAPGKERELVAAINWSGGSTYYADSVKGRFTISRDNAKNTFYFQMNSLKPQDTAVYYCAADYGWGPIYDYWGQGTQVNVSS", "polyreactivity (PSR sort gate)": "low polyreactivity"}, {"sequence": "QVQLEESGGGLVQAGGSLRLSCAASGSIFYVYAIGSYRQAPRKERELVAAISQSGGNTYYADSVKGRFTISRDNAKNTVYLQMNSLKPEDTAVYYCNAVYYYYAGNYWGQGTQVTVSS", "polyreactivity (PSR sort gate)": "high polyreactivity"}, {"sequence": "QVQLEESGGGLVQAGGSLRLSCAASGSIIAGYAMGWYRQAPGKERELVAAISQRGTSTYYADSVKGRFTISRDNAKNTVYLQMNSLKPEDTAVYYCAARVVSRMDYWGQGTQVTVSS", "polyreactivity (PSR sort gate)": "high polyreactivity"}, {"sequence": "QVQLEESGGGLVQAGGSLRLSCAASGSNFYLNDMGWYRQAPGKEREFVAAIDSRGTSTYYADSVKGRFTISRDNAKNTVYLQMNSLNPEDTAVYYCAADSYALEYDYWGQGTQVTVSS", "polyreactivity (PSR sort gate)": "low polyreactivity"}, {"sequence": "QVQLEESGGGLVQAGGSLRLSCAASGSTCGYYAMGWYRQAPGKERELVAVITRGGSTYYADSVKGRFTISRDNAMNTVYLQMNSLKPEDTAVYYCNARVQAVHYGYWGQGTQVPVSS", "polyreactivity (PSR sort gate)": "high polyreactivity"}, {"sequence": "QVQLEESGGGLVQAGGSLRLSCAASGSTFANYAMGWYRQAPRKERELVAGISWRGGRTYYADSVMGRFTISRDNGKNTVYLQINILKPEDTAVYYCAVVHQTFTGDYWGQGTQVTVSS", "polyreactivity (PSR sort gate)": "high polyreactivity"}, {"sequence": "QVQLEESGGGLVQAGGSLRLSCAASGSTFGYYAMGWYRQAPGKERELVAAISRSGGITYYADSVKGRFTISRDNAKNTVYLQMNSLKPDDTAVYYCAADRNRYTGEDDSWGQGTQVTVSS", "polyreactivity (PSR sort gate)": "low polyreactivity"}, {"sequence": "QVQLEESGGGLVQAGGSLRLSCAASGSTFPYYAMGWYRQAPGKERELVAVITSSGSRTYYADSVKGRFTISRDNAKNTVYLQMNSLKPEDTAVYYCARDTRYYRPNRSQYDYWGQGTQVTVSS", "polyreactivity (PSR sort gate)": "high polyreactivity"}, {"sequence": "QVQLEESGGGLVQAGGSLRLSCAASGSTFSDNAKAWYRQATGKVRELVADITWSGGSTHYADSVKGRFTFSRDNAKNTVYLQMTSLKPEDTSVYYCARDNYKEGDYWGQGTKVTVSS", "polyreactivity (PSR sort gate)": "low polyreactivity"}, {"sequence": "QVQLEESGGGLVQAGGSLRLSCAASGSTFSRYAMGWYRPAPGKEREFVAAISRRAGGTYYADSVKGRFTISRDNAKNTVYLQMNSLKPEDTAVYYCATVLPRDYIGRATYDYWGQGTQVTVSS", "polyreactivity (PSR sort gate)": "high polyreactivity"}, {"sequence": "QVQLEESGGGLVQAGGSLRLSCAASGSTFVPYAMGWYRQAPGKERELVASISWRGGSTSYADSVKGRFTISRDNAKNTVYLQMNSLKPEDTAVYYCAADLGLDYDDAQTRVVVTSEDYWGQGTQVTVSS", "polyreactivity (PSR sort gate)": "high polyreactivity"}, {"sequence": "QVQLEESGGGLVQAGGSLRLSCAASGSTFWPYSMGWYRKATGKERELVAAITLRGGTTYYADSVKGRFTISRDNAMNTVYFQMNSLKPEDTAVYYCNADDYHYFSYDYWGQGTQVTVSS", "polyreactivity (PSR sort gate)": "low polyreactivity"}, {"sequence": "QVQLEESGGGLVQAGGSLRLSCAASGSTFWVYVMGWYRQAPGKERELVATIRWSTSSTYADSVKGRFTISRDNAKNTVYLQMNILKPEDTAVYYCNTYPRGNWGNFVEQDYDYWGQGTQVTVSS", "polyreactivity (PSR sort gate)": "low polyreactivity"}, {"sequence": "QVQLEESGGGLVQAGGSLRLSCAASGSTSTYNAMGWYRQAPGKERELVAAITESGGSTYYADSVKGRFTISRDNAKNTVYLQMNSLKPEDTAVYYCNTGYGLVDFLYGYYYWGQGTQVTVSS", "polyreactivity (PSR sort gate)": "low polyreactivity"}, {"sequence": "QVQLEESGGGLVQAGGSLRLSCAASGYIFQSYAMGWYRQAPGTERELVAAISRGGSTYYADSVKGRFTISRDNAMNSVYLQMNSLKPEDTAVYYCNTLTVGGFRRYYYWGQGSQVTVSS", "polyreactivity (PSR sort gate)": "high polyreactivity"}, {"sequence": "QVQLEESGGGLVQAGGSLRLSCAASRSTLDGYAMGWYRQAPGKERELVDAITFSGGITYYADSVKVRFTISRDNAKNTVYLQMNILKPEDTAVYYCAADISTWTTWSGTEYDYLGQGTQVTVSS", "polyreactivity (PSR sort gate)": "low polyreactivity"}, {"sequence": "QVQLEESGGGLVQAGGSLRLSCAASVSNLYYYPMGWYRQATRKERELVASIRNGGSTYYADSVKGLFTISRDNAKNTVYLQMNSLKPEDTAVYYCNARVSRSFRARYNYWGQGSQVTVSS", "polyreactivity (PSR sort gate)": "high polyreactivity"}, {"sequence": "QVQLEESGGGLVQAGGSLRLSCAGSGFISNGYALGWYRQAPGKEREFVASISSTGGRTYYADSVKGRFTISRDNAKNTVYLLMNSLKPEDTSVYYCAKDPQPRYWVDYWGQGTQVTVSS", "polyreactivity (PSR sort gate)": "low polyreactivity"}, {"sequence": "QVQLEESGGGLVQAGGSLRLSCAGSGNIFPSYALGWYRQAPGKERELVAAITYSAVSTYYADSVKGRFTISRDNAKNTVYLQMNSLKPEDTAVYYCAKETTEVPGVGSQEMDFWGQGTQVTVSS", "polyreactivity (PSR sort gate)": "low polyreactivity"}, {"sequence": "QVQLEESGGGLVQAGGSLRLSCASYGRIFPFYALGWYRQAPRKERELVARISRRGGSTYYADSVKGRFTISRDNAKNNVYLQMNSLKPEDTAVYYCASSQAVYDGWYAKFGYWGQGTQVTVSS", "polyreactivity (PSR sort gate)": "low polyreactivity"}, {"sequence": "QVQLEESGGGLVQAGGSLRLSCASYGSTFTYNAMGLYIQAPAKERELVAVIRPGGTTNYADSVKGRFTISRDNAKNSVYLQMNSLKPVDTAVYYCAADVRRYDGYDYWGQGTQVTVSS", "polyreactivity (PSR sort gate)": "low polyreactivity"}, {"sequence": "QVQLEESGGGLVQAGGSLRLSCPASGLTFDCYAMGWYRQAPGKERELVAAITSVGSTYYADSVKGRFTISRDNAKNTVYLQMTSLKPEDTAVYYCAVEGVIWCFWPYEYWGQGTQVTVSS", "polyreactivity (PSR sort gate)": "high polyreactivity"}, {"sequence": "QVQLEESGGGLVQAGGSLRLSWAASGRTIAAYAMGWYRQAPGKERELVAAISIGGSTNYADSVKGRFTISRDNAKNTVYLQMNSLKPEDTAVYYCAAPRRRYLRARIRYEYWGQGTQVTVSS", "polyreactivity (PSR sort gate)": "high polyreactivity"}, {"sequence": "QVQLEESGGGLVQAGGSLRLTCAASGIIFRFYAMRCDRQAPGKERELVAVITSRSDSTYYADSVKGRFTISRDYAKNTVYLQMNSVKPEDTAVYYCNARYPWYYRYSTYDYWGQGTQVTVSS", "polyreactivity (PSR sort gate)": "high polyreactivity"}, {"sequence": "QVQLEESGGGLVQAGGSLRLTCAASGRTFSSYTMGWSRQAPGKERELVASITNNGGSTYYADSVKGRFTISRDNAKNTVYLQMNSLKPEDTAVYYCNKDPWYVFHPRGLFLFDYWGQGTQVTVSS", "polyreactivity (PSR sort gate)": "low polyreactivity"}, {"sequence": "QVQLEESGGGLVQAGGSLSLSSAASGSIFRNYAKGWYRQAPGKERELVAAISVRGGSTYYADSVKGRFTISRDNAKNTVYLQMNSLKPEDTAVYYCNARTYYPVYYRDGGYWGQGTQVTVSS", "polyreactivity (PSR sort gate)": "high polyreactivity"}, {"sequence": "QVQLEESGGGLVQAGGSRRLSCAASGITFPGYAMGWYRQAPGKERELVAGITYRGGRTYYADSVKGRFTISRDNAKTTVYLQMTSLNTEATAVYYCNADYWSTGGSYSFDYWGQGTQVTVSS", "polyreactivity (PSR sort gate)": "low polyreactivity"}, {"sequence": "QVQLEESGGGLVQAGGTLRLSCAASGLNFSYNAMGWYRQAPGKERELVAAISYSGGSTYYPDSVKGRFTISRDNAKNTVYLQMNSLKPEDTAVYYCASDAWWLYYGYYYWGQGTQVTLSS", "polyreactivity (PSR sort gate)": "high polyreactivity"}, {"sequence": "QVQLEESGGGLVQAGRSLRLISAASGRMFGWNAMGWYRQAPWKERELVASIRSGGRTNYADSVKGRFTISRDNAKNTVYLQMNSLKPEDTAVYYCAVGPYYQSTQIYDYWGQGTQVTVSS", "polyreactivity (PSR sort gate)": "low polyreactivity"}, {"sequence": "QVQLEESGGGLVQAVGSLRLTCAASGLIFKSNAMGWYRQAPGKERQLVAAITRTGGSTYYADSVKGRFTISRDNAKNTVYLQMNSLKPEDTAVYYCAVLYDRYGRAYYYWGQGTQVTVSS", "polyreactivity (PSR sort gate)": "high polyreactivity"}, {"sequence": "QVQLEESGGGLVQAVRSLRLSCAASGSTFDYYAMRWFRQAPWKEREFVAAISVSGGRTYDADSVKGRFTISRDNAKTTVYLQMNSQKPEDTAVSYCAAVQWYLPSFRYYYRGQGTQVTVSS", "polyreactivity (PSR sort gate)": "high polyreactivity"}, {"sequence": "QVQLEESGGGLVQPGGSLRLSCAASGIIFAYNAMGWNRQAPGKERELVATITDSGGTTSYADSVKGRFTISRDNAKNTVYLQMNRLKQEDTAVYYCAVLPVYWYWRNYVYLSGYDYWGQGTQVNVSS", "polyreactivity (PSR sort gate)": "low polyreactivity"}, {"sequence": "QVQLEESGGRLVQAGARLRLSCAASGPIFHQYAMGWYRHAPGKERELGAAISSGGGSTYYADSVKGRFTISRDNAKNTGYLQMNSLKPEDTAVYYCNVYSVRWARFDFWGQGTQVTVSS", "polyreactivity (PSR sort gate)": "high polyreactivity"}, {"sequence": "QVQLEESGGRLVQAGASLRLSCAASGSIFEDYVMGWYRHAPGKERELVADITSGGTTYYADSVKGRFTISRDYAKNTVYLQMNRLKPEATAVYYCNAYLIVDYGDETPYASLHDYWGQGTQVTVSS", "polyreactivity (PSR sort gate)": "low polyreactivity"}, {"sequence": "QVQLEESGGRLVQAGGSLRLSCAASGGILRGYGMGWYRQAQGKQRELVAVISRRGGSTYYADSVKGRFTISRDNAKNTVYLQMNRLKPEVTAVYYCAADLKTGFLEYDYWGQGTQVTVSS", "polyreactivity (PSR sort gate)": "high polyreactivity"}, {"sequence": "QVQLEESGGRLVQAGGSLRLSCAASGSIIGRYTMGWYRQAPGKERELVAAISGSGGSTYYADSVKGRFTISRDNAKNSVYFQMYSLKPEDTAVYYCAAYYYGRYLMVYWGQGTQVTVAS", "polyreactivity (PSR sort gate)": "high polyreactivity"}, {"sequence": "QVQLEESGGRLVQEGGSLRLSCAASGYIFQGNAMGWYTPAPGKERELVAAITSSGGRTYYADSVKGRFTISRDNAKNTVYLQMHSLKPEDTAVYYCAAKSVRRGGGEYWGEGTQVTVSS", "polyreactivity (PSR sort gate)": "high polyreactivity"}, {"sequence": "QVQLEESGGRLVQPGGSLRLSCAASGFIFGIYDMGWYRQAPGKERELVAAITYSGSSTYYADSVKGRFTISRDNAKNTVYLQMNSLKPEDTAVYYCNKTAWDWDYWDPEYDYWGQGTQVTVSS", "polyreactivity (PSR sort gate)": "high polyreactivity"}, {"sequence": "QVQLEESGGVLVQAGGSLRLSCAASGLTLYRNAMGWYRQAPGKERELVATINFSGGSTYYADSVKGRFTISRDNAKNTVYLQMNSLKPEDTAVYYCNARGYWHYSPTKFDYWGQGTQVTVSS", "polyreactivity (PSR sort gate)": "low polyreactivity"}, {"sequence": "QVQLEESGGVLVQAGGSLRLSCAASGSIFDAYAMGWYRQAPGKDRELVADITVSAGRTYYADSVNGRFTISRDNAKNTVYLQMNSLKPEDTAVYYCAADSIVGDGYWSYYWGQGTQVTVSS", "polyreactivity (PSR sort gate)": "low polyreactivity"}]}]}
